The text below walks through data of article PMC7105484, “Crystal structures of REF6 and its complex with DNA reveal diverse recognition mechanisms” (Cell Discovery, 2020).

Experiment in all cases: MST; MST: 20 mM HEPES pH 7.3, 150 mM NaCl, 0.2 mM TCEP, 0.5% CA-630, 25 C; EMSA: 30 uM protein, 10 uM dsDNA, 20 mM Tris pH 8.0, 100 mM NaCl, 2.5 mM MgCl2, 0.1% CA-630, 10% glycerol, 1 uM ZnSO4, 1 mM DTT, 4 C
In one data set the target is T1, REF6 W1309A (Arabidopsis thaliana, UniProt Q9STM3 1223-1360, W1309A).
T1 sequence: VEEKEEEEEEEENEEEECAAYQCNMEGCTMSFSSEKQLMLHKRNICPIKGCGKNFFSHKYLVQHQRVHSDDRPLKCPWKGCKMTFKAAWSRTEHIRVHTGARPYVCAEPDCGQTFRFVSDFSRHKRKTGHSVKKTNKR
Particulars: protein: recombinant; tags: His6-MBP or GST, TEV-cleavable; label: FAM in MST; none in crystal and EMSA; 5' overhang 1 nt on both strands, 15 bp.

The target in a further data set is T2, REF6 K1281A (Arabidopsis thaliana, UniProt Q9STM3 1223-1360, K1281A).
T2 sequence: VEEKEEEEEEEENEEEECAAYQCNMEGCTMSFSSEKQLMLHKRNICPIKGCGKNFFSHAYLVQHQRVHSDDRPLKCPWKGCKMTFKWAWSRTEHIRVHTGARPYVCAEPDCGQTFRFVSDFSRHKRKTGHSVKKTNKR
To be noted: protein: recombinant; tags: His6-MBP or GST, TEV-cleavable; label: FAM in MST; none in crystal and EMSA; 5' overhang 1 nt on both strands, 15 bp.

The target in another data set is T3, REF6 ZnF1-4 WT (Arabidopsis thaliana, UniProt Q9STM3 1223-1360).
T3 sequence: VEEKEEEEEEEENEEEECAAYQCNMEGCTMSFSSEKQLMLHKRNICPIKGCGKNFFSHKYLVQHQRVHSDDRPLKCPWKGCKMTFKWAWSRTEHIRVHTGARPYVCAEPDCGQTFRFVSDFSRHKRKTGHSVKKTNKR
To be noted: protein: recombinant; tags: His6-MBP or GST tag, TEV-cleavable (cleaved when necessary); label: FAM in MST; none in crystal and EMSA; 5' overhang 1 nt on both strands, 15 bp.

B1: NAC004 m5 (dsDNA)
DNA 1: CTTTCTCTGTTTTGTC
DNA 2: GGACAAAACAGAGAAA
With B1, the values for the Kd with REF6 W1309A, in the data set with REF6 K1281A and with REF6 ZnF1-4 WT were 58500 nM, 1300 nM and 400 nM, respectively.
